Test results as given in US8357523B2, “Beta-glucosidase variant enzymes and related polynucleotides” (Codexis, Inc., priority 2009, dated 2013).
Residue numbers refer to the chain shown, from its start.

B1: 184 (protein)
chain: STAIAQEGAAPAAILHPEKWPRPATQRLIDPAVEKRVDALLKQLSVEEKVGQVIQGDIGTITPEDLRKYPLGSILAGGDSGPNGDDRAPPKEWLDLADAFYRVSLEKRPGHTPIPVLFGIDAVHGHGKIGSATIFPHNIALGATRSPELLRRIGEVTAQEMAATGIDWTFAPALSVVRDDRWGRTYEGFSEDPEIVAAYSPAIVEGVQGKYGSKDFMAVGRIVASAKHFLADGGTDQGRDQGDARISEDELIRIHNAGYPPAIDAGVLTVMASFSSWQGVKHHGHKQLLTDVLKGQMGFNGFIVGDWNAHDQVPGCTKFNCPTSLIAGLDMYMAADSWKQLYENTLAQVKDGTIPMARLDDAVRRILRVKVLAGLFEKPAPKDRPGLPGLETLGSPEHRAVGREAVRKSLVLLKNDKGTLPLSPKARVLVAGDGADNIGKQSGGWTISWQGTGNRNDEFPGATSILGGIRDAVADAGGSVEFDVAGQYKTKPDVAIVVFGEEPYAEFQGDVETLEYQPDQKQDLALLKKLKDQGIPVVAVFLSGRPMWVNPELNASDAFVAAWLPGTEGGGVADVLFTDKAGKVQHDFAGKLSYSWPRTAAQTTVNRGDADYNPLFAYGYGLTYKDKSKVGTLPEESGVPAEARQNAGIYFRAGALRLPGRFL
B2: 190 (protein)
chain: B1 chain with D79N, K128N, S146D, Q159V, P201A, Y211F, V219P, F274Q, V280I
B3: 191 (protein)
chain: B1 chain with D79N, K128N, S146D, Q159V, P201A, Y211F, V219P, F274A, V280I, D436N
B4: 186 (protein)
chain: B1 chain with I134N, S146D, P201A, Y211F, V219P, S225C, V280I
B5: 189 (protein)
chain: B1 chain with D79N, K128N, S146D, Q159V, P201A, Y211F, V219P, F274K, V280I
B6: 188 (protein)
chain: B1 chain with Q159V, A162T, A198S, P201A, V219P, V280I
B7: 192 (protein)
chain: B1 chain with D79N, K128N, S146D, Q159V, P201A, Y211F, V219P, F274A, V280I
B8: 82 (protein)
chain: B1 chain with D79N, Q159V, P201A, Y211F, V219P, I222A, S225C, V280I
B9: 193 (protein)
chain: B1 chain with D79N, K128N, S146D, Q159V, P201A, Y211F, V219P, V280I, I326S
B10: 185 (protein)
chain: B1 chain with D79N, K128N, S146D, A198S, P201A, V219P, I222A, S225C, V280I, P381S
B11: 194 (protein)
chain: STAIAQEGAAPAAILHPEKWPRPATQRLIDPAVEKRVDALLKQLSVEEKVGQVIQGDIGTITPEDLRKYPLGSILAGGDSGPNGDDRAPPKEWLDLADAFYRVSLEKRPGHTPIPVLFGIDAVHGHGNIGSATIFPHNIALGMTRDPELLRRIGEVTAEEMAATGIDWTFAPALSVVRDDRWGRTYEGFSEDPEIVASYSAAIVEGVQGKFGSKDFMAPGRIVASAKHFLADGGTDQGRDQGDARISEDELIRIHNPGYPPAIDAGVLTVMASFSSWQGIKHHGHKQLLTDVLKGQMGFNGFIVGDWNAHDQVPGCTKFNCPTSLIAGLDMYMAADSWKQLYENTLAQVKDGTIPMARLDDAVRRILRVKVLAGLFEKPAPKDRPGLPGLETLGSPEHRAVGREAVRKSLVLLKNDKGTLPLSPKARVLVAGDGADNIGKQSGGWTISWQGTGNRNDEFPGATSILGGIRDAVADAGGSVEFDVPGQYKTKPDVAIVVFGEEPYAEFQGDVETLEYQPDQKQDLALLKKLKDQGIPVVAVFLSGRPMWVNPELNASDAFVAAWLPGTEGGGVADVLFTDKAGKVQHDFAGKLSYSWPRTAAQTTVNRGDADYNPLFAYGYGLTYKDKSKVGTLPEESGVPAEARQNAGIYFRAGALRLPGRFL
B12: 196 (protein)
chain: B11 chain with P257A, P485A, G570P, T604P
B13: 197 (protein)
chain: B11 chain with P257A, T604P

Assay: High throughput cellobiose assay: fold improvement in cellobiase activity of CelA variants over a control enzyme (Tables 2A-2D, 3, 5, 6, 7)
Type: biochemical
Settings: 3.3 g/l cellobiose, 55° C. and pH 6.0

Molecule | Fold improvement over Control Variant No. 5 from Table 2A
B1 | +++ (+++ = 6 to 13 fold improvement over control Variant No. 2)
B2 | ++ (++ = 1.1 to 6 fold improvement over control Variant No. 2)
B3 | ++ (++ = 1.1 to 6 fold improvement over control Variant No. 2)
B4 | +++ (+++ = 6 to 13 fold improvement over control Variant No. 2)
B5 | ++ (++ = 1.1 to 6 fold improvement over control Variant No. 2)
B6 | ++ (++ = 1.1 to 6 fold improvement over control Variant No. 2)
B7 | ++ (++ = 1.1 to 6 fold improvement over control Variant No. 2)
B8 | +++ (+++ = 6 to 13 fold improvement over control Variant No. 2)
B9 | ++ (++ = 1.1 to 6 fold improvement over control Variant No. 2)
B10 | ++ (++ = 1.1 to 6 fold improvement over control Variant No. 2)
B11 | ++ (++ = 1.1 to 6 fold improvement over control Variant No. 2)
B12 | ++ (++ = 1.1 to 6 fold improvement over control Variant No. 2)
B13 | ++ (++ = 1.1 to 6 fold improvement over control Variant No. 2)
